The target in data set [1] is Pcc1–Kae1 binary complex from Pyrococcus abyssi (Pyrococcus abyssi) (UniProt Q9V1Z9).
The test system of data set [2] is Kae1-Bud32 (Pyrococcus abyssi). Put plainly: EMSA. The following applies: apparent Kd; retarded bands from 50 nM; EMSA: 10 nM 32P-tRNA, 20 µl binding buffer BB (composition not in material), 15 min at 4 C (Figure 7 legend: room temperature), 10% native gel in 1X TGE at 4 C.

Chain of Pcc1–Kae1 binary complex from Pyrococcus abyssi (Pyrococcus abyssi) (Q9V1Z9 whole entry, chain 1 of 2): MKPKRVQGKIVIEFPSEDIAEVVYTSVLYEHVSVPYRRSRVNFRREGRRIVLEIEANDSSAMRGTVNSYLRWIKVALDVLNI
Chain of Pcc1–Kae1 binary complex from Pyrococcus abyssi (Pyrococcus abyssi) (Q9UXT7 whole entry, chain 2 of 2, further chain): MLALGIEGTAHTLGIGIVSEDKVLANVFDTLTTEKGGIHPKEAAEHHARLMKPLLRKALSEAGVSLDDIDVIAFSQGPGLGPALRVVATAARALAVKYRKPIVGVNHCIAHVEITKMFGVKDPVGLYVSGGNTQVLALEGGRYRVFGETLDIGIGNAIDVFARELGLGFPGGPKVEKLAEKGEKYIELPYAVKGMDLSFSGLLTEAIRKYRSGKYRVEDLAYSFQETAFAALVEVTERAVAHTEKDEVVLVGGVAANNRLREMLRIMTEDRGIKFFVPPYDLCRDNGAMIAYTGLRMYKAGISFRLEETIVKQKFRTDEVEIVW

In data set [1], “Kae1–Bud32 binary complex from Pyrococcus abyssi (from UniProt Q9UXT7 1-324; Q9UYB9 1-220)” displayed a t^6A synthesis (14C-L-threonine incorporated into tRNA) by a mix of the two binary complexes, relative to PaKEOPS of 30%.
“Kae1–Bud32–Cgi121 ternary complex from Pyrococcus abyssi (from UniProt Q9UXT7 1-324; Q9UYB9 1-220; Q9UZ62 1-171)”: in data set [1], the t^6A synthesis (14C-L-threonine incorporated into tRNA) after adding Pcc1–Kae1 to the ternary complex, relative to PaKEOPS was 36%.
For the substance substrate tRNA (probably Ec_tRNALys), the Kd in data set [2] stood at 2 µM.

(Values after article PMC3814370, “Functional assignment of KEOPS/EKC complex subunits in the biosynthesis of the universal t^6A tRNA modification” (Nucleic Acids Research, 2013).)
